Measured values reported in publication PMC3976097.

How the values were obtained:
[1] = target: Recombinant human IFN-α/β R2-Fc chimera (human) (UniProt P48551)
[2] = target: Recombinant human IFN-α/β R2-Fc chimera (human) (UniProt P48551); assay: SPR; BIAcore T-100; human IFNR2-Fc captured on a CM5 chip by an immobilized anti-human IgG Fc antibody; Nova or IFN-α2b in the solution phase; binding measured under equilibrium conditions

UniProt P48551, sequence (P48551 27-243, change not shown): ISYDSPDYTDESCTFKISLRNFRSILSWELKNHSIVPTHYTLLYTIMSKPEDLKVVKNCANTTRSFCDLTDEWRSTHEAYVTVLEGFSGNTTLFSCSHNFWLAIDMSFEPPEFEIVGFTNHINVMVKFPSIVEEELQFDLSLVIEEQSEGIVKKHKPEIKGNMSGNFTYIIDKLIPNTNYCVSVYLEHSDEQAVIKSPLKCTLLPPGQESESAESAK

Substance: Novaferon (ligand)
- anti-tumor activity against Daudi cell lines (MTT anti-proliferative assay) [1]: 2.74e+10 U/mg
- anti-virus activity, WISH/VSV system (cytopathic effect reduction assay) [1]: 1.34e+09
- Kd [2]: 0.0123 nM
